{
  "source": "patent CN109776677A",
  "about": "(SHANGHAI PHARMEXPLORER COMPANY LTD, dated 2019)",
  "binders": {"B1": {"name": "c29D9H8 (antibody, V domains shown)", "VH": "QVQLQQSGAELVRPGASVTLSCKASGYTFTDYEMHWVKQTPVHGLEWIGGIDPETGGTASNQKFKGKAILTADKSSSTAYMELRSLTSEDSAVYYCTSGDYFGGGPFAYWGQGTLVTVSA", "VL": "DIKMTQSPSSMYASLGERVTITCKASQDINSYLSWFQQKPGKSPKTLIYRANRLVDGVPSRFSGSGSGQDYSLTISSLDYEDMGIYYCLQYDEFPYTFGGGTKLEIK"}, "B2": {"name": "35E2C3 (antibody, V domains shown)", "VH": "EVQLQESGPGLAKPSQTLSLTCSVTGYSITSDYWNWIRKFPGNKLEYMGYISYNGNTYYNPSLKSQISITRDTSKNQLYLQLKSATTEDTATYYCARLAKWTWYFDIWGTGTTVTVSS", "VL": "DIQMNQSPSSLSASLGDTITITCHASQNINVWLSWYQQKPGSLPKLLIYKASDLHTGVPSRFSGSGSGTGFTLTISSLQPEDIATYYCQQGQSYPYTFGGGTKLEIK", "notes": "also called 先导抗体; IL-13先导抗体"}},
  "key": {"[1]": {"biological_target": "免疫原A (his标签重组人IL-13蛋白) (human) (UniProt P35225)", "experiment": "SPR (Biacore), sentence on the group of 表27"}, "[2]": {"biological_target": "免疫原A (his标签重组人IL-13蛋白) (human) (UniProt P35225)", "experiment": "SPR (Biacore), antibody captured on anti-human Fc CM5 chip, immunogen A as analyte, 1:1 global fit"}, "[3]": {"biological_target": "免疫原A (his标签重组人IL-13蛋白) (human) (UniProt P35225)", "experiment": "SPR (Biacore), steps as Example 9"}, "鼠IL-13": {"biological_target": "T1, 鼠IL-13 (小鼠 (mouse), UniProt P20109 19-131, limits assumed)", "T1 construct": "Bought protein; also called 小鼠IL-13; 鼠IL-13变体", "T1 sequence (looked up)": "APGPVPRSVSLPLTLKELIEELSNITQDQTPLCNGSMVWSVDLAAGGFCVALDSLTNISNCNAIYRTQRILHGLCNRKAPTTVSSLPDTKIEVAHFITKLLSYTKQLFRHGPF", "experiment": "ELISA, IL-13 at 0.5 μg/mL on streptavidin plate, serially diluted antibody, HRP second antibody"}},
  "data": [
    {"binder": "B1", "values": [
      {"measurement": "Kd", "setting": "[1]", "result": "< 90", "unit": "nM"},
      {"measurement": "Kd", "setting": "[2]", "result": 0.0324, "unit": "nM"},
      {"measurement": "koff", "setting": "[2]", "result": 0.000813, "unit": "s⁻¹"},
      {"measurement": "kon", "setting": "[2]", "result": "2.51e+07", "unit": "M⁻¹ s⁻¹"},
      {"measurement": "Kd", "setting": "[3]", "result": 0.0247, "unit": "nM"},
      {"measurement": "koff", "setting": "[3]", "result": 0.000962, "unit": "s⁻¹"},
      {"measurement": "kon", "setting": "[3]", "result": "3.9e+07", "unit": "M⁻¹ s⁻¹"}
    ]},
    {"binder": "B2", "values": [
      {"measurement": "Kd", "setting": "[1]", "result": "< 90", "unit": "nM"},
      {"measurement": "binding result", "setting": "鼠IL-13", "result": "no binding"},
      {"measurement": "Kd", "setting": "[2]", "result": 0.863, "unit": "nM"},
      {"measurement": "koff", "setting": "[2]", "result": 0.00026, "unit": "s⁻¹"},
      {"measurement": "kon", "setting": "[2]", "result": 300000, "unit": "M⁻¹ s⁻¹"},
      {"measurement": "Kd", "setting": "[3]", "result": 0.86, "unit": "nM"},
      {"measurement": "koff", "setting": "[3]", "result": 0.000248, "unit": "s⁻¹"},
      {"measurement": "kon", "setting": "[3]", "result": 289000, "unit": "M⁻¹ s⁻¹"}
    ]}
  ]
}
